Experiment: soluble fraction after stress (log2 fold change); higher = more stays soluble; pooled small domains, quantitative proteomics
Conditions: stress: 50 degC
Summary of the method: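 The stress applied to every library was 50°C. These custom libraries of small protein domains were pooled and measured at high throughput with quantitative proteomics as the read-out. Aggregation propensity is expressed as the base-two logarithm of the fold change in how much of each protein remains soluble. The higher the value, the more of that protein stays in solution.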

| Sequence | soluble fraction (log2) |
| --- | --- |
| HMNETRVDQAADLLLALLEKEPKSAAEILDEFEQAGFSKSGLYRAKDALGVVSIRKEGRWVWSLPHSLD | -0.104 |
| HMNEYIVSAEQEGMRLDVFLTEQMEGSRSYIQSLIKGGHVTVGDKVGKANLRLTPDTVIHVEIPEPE | 0.0524 |
| HMNEYLPEAVQKLLEVMEYDIPYTSNELMERLGLKAKEGFRRNYLHPAMEMKLIQMTIPDKPNSRNQRYLR | -2.11 |
| HMNFHLEHHIAELLYRSIRGELSDFERQELNQWRSDSPMHETLFMRLQDDEYIDEELGVFIK | -1.99 |
| HMNFKNMIDSLSGILFKKDPSAAIIDIGGVRLKVFITVGSYEQLPAKGEQVEILTYLHVKEDILNLYG | -0.242 |
| HMNFMDGFQSFFQESGAMNRPMTADVVSYRLPDGTVQQGNSTMRGLMDQYLKSIGQSPTTGVP | 0.00775 |
| HMNFRESVLAVFENSKQKYLDFDEIAKRLGLTRGFDRQALASMLNELTRNDEIVFTKRNKYTLPEN | 0.125 |
| HMNGAVAEQARKQLMAALKASEFIAEEKLDEWLDALALPEDKRTAIVDAVDELDYEEAISELEN | 0.0153 |
| HMNGDYFEYRYAVNGSRSTPPSLSKTSRNPSGWSTTVPTVGNLQYLWFTVAKINGETNSLIQNWSTPARQT | -0.13 |
| HMNGEAQTMYVTARTLNVRKGPGTSYAKAGTLSRGTAVQVVGFSGNWAKLSNGYYVSTSYLAKI | -1.32 |
| HMNGKWKLRIIKELLHSNIRFGQILKNIPDISPKVLSQQLKEMEEDGIIERIVISEMPPNVEYVLTDMGE | -0.789 |
| HMNGLNISYRMDGENVVETIVFPDATMIRTIAPNGVMTIKTIEDGSVSTSELKADYKLYKKIYESQY | -0.262 |
| HMNGSVLVTGGSVWIRAGASKETDGLGIVHKGDVLKRSGSDASGWRGVVYEGQNAFISAKYSSI | -0.916 |
| HMNGTEAIRRYIDQFASKHATTPRMLKLNERKQLIQELKNNGLLEIKKAVETVAQHLGISRASAYLYVKE | -0.303 |
| HMNGVPDMSPVPEGARNSTLHAWAFGRLKNHPDNETGIREDLFRRGHASGLQDAELDQIWKSIKRTL | 0.0847 |
| HMNGVSNETLIQKSALYEELNQPDLALKMINTALKKDSVNIEILHRLVTLLMSQEKNEEAILYNQKIIDH | 0.022 |
| HMNHSITLTERKNLLITGVKKIENFDKEEFLIETTMGFLVVKGDGLELIKLDTISGNVSIKGIVNGFTYID | 0.223 |
| HMNIAAVIGQTGVLQDDLKAGEQGTVKADNKLWTAVLAEGEEAVKKEERVDIVAVEGVKLIVRRNI | 0.0397 |
| HMNIDEIFLTKNEIYFSFEYQKKSQLDRYSKIISLDHRIDKNTAYAYANKKQFLNFINLNIDYKIIDNSF | -2.65 |
| HMNIDEIIGKKAVVIESIDNLQGTGKVRYQGMEWTARAEEENDRIEKDAEVEIIAVKGVKLIVKMK | -0.13 |
| HMNIDNTWQPSEDVVEILTRSGINEDFINELIPEFIVYWTERPGTLVSYNSKFIEHVRLKWAQHSAEI | 0.0597 |
| HMNIDVAAEKQQLGPNADQIVKGTVTWMQGLVAKGIWSETDFEEGKIFTATADGINAINKIRRYYGEQT | -0.0611 |
| HMNIEDFKDKVKELKQYTYQELVEDVKLKTDRADVILPASKIYLEAMQQAKVDSIIVPKVGLAEGVAR | 0.0593 |
| HMNIEEQVVAEVLVKDFMKQLTPRDIHILELRKNGYTYQEIAGQLGYHTHSAVKKRVDRLAEQWLAYTQGH | -1.53 |
| HMNIFAHQIGKLRTERHLSQTDVAKRLYVSRQAVSKWENGDAEPSLDNLIALAKLFNVSLDNLITGQ | -0.49 |

| Sequence | soluble fraction (log2) |
| --- | --- |
| HMNIGVEQIEQMERGALITLWQELIDKPLPRHMSIVFLRQVLAFEVQSKQNGGLPRGFITLLNKQAD | -0.824 |
| HMNIKITKSKNSEHYSIIYNTKINGKRTSKIYENIGNFEKLKLRAGEQEPIEWLKNYVSELNKKQKEDT | 0.109 |
| HMNIKYDFPTNSPLEMMRNLFDSNSQIINDLKDGFAMANSLNEQGLANFFAERIDKHQFWSWQLSASL | -0.399 |
| HMNILDPTVMKNILDKNHEEFIAIYESAPLGQKTIINSMVFDKRLNGENVDANILMYLQNKTNIDYINIEP | -0.167 |
| HMNILNYIIENENQEVRVDKFLSDTIEDMSRSSVASIIEDGGLLVNDKLQNKKYKLKIGDKVQFTVPDPV | 0.113 |
| HMNILVAISDTGEIWINKRRVDARAVQANIERLHAENPQGTVVIQADKQATTETLIKVMDASRAAGVFDVS | -0.618 |
| HMNINLDINTYTVKELEKLLKLEVPYSDNNVFEKKNLMVKMIQTSTIAETKKEELYIFLDNIYNRLTNNLE | -1.35 |
| HMNISLGALVTITDQKGRSHTVTLESGKQFFTNHGSINHDEIIKAGEGGVVASSSGMLYTIFTP | -0.836 |
| HMNISRESLIGQILATLNKNPEEGFNYKQIAKRLNITDSPGRQMISDLLRELSKHGSLQEISHGKYKIKV | -0.226 |
| HMNITHEINVKSKSKIDFLENNKNLAQFFLTKNPNQFNYNLVFSDKSELNIIKEKIESHKDIEDIDIRYG | 0.0125 |
| HMNIVINVDTPTFEQMKATYQAPGTLPAGASFHAKLKGVTVTGYTKSHKVMFQGALANQEAARWQ | -0.92 |
| HMNIYFNIEDAVANAVVENGKMSAAIYEKNVDTGEVAKLAEVSMPVMGGNINITKTLLTKALISQLP | -0.384 |
| HMNKAYLTVADMKKDKSLKNGDVVRTLGYYGYNDGDGAVYQIKDSHPEDYHIRLDNGLDAEQINY | 0.012 |
| HMNKEHINLDSSKFLSLLNKTKISMSNDETRHYLNGIYIHPTVSNKSSYLTGVATDSHRLSSSSIPVD | 0.121 |
| HMNKMIIELGEKLKALRTENHLRQDQVARLVNVEKSSISMYETGMRQPSYTTLVRLADVFNVTTDYLLGRK | -2.24 |
| HMNKPTSMYKLRLLLKHYHAGASKRWMADVLDISRSTLNVYLARIESLNLAFEEWEALSDLEVSRLLINP | -3.05 |
| HMNKVAQFYRELVSTLSERLRNGERDIDALVEQARVRISQSGELTQSEIENVIRAVRRDLEEFALSYEE | 0.0926 |
| HMNLAISAYQQLKSDIIRGVYAPGEKLLMSRLKVRYGLGIGPMREALSQLVSEHLVTAASQRGYRVAGM | -1.64 |
| HMNLAPLLTEYVQINFRRASEMKTYLEQANLISERGFLLADDQTNILMVRETGASIEEIRRTLNRF | -1.77 |
| HMNLFKAPMPGLIRTIVVAEGQEVKKGDVILILEAMKMENALKSPADLVVKSIKVQQGQAVEKNQLLIEF | -0.0526 |
| HMNLGNLLKIYRKNSLLTQQQVADALNINRTTYTYYETGKTEPSIDTLHKLIKIFGITYDDLL | -2.7 |
| HMNLKDINLNVRHYKIIDFVREHGYASIETLTRQFGVSAQTVRRDIIYLDNQAVLKRHHGGVGTLPG | -1.99 |
| HMNLPTSGVDALTPAERRVARMAGDGQSNREIAQTLFVTRKTVEIHLTSVYRKLGIASRAELSARL | -2.6 |
| HMNLQGIISQKAIVTQTIEPYETGVAKLNGEEWTAMSKDETRIEAGKLVEVVAIEGVKLIVKEVS | -0.0794 |
| HMNLVELKHAEEFNTLIIQDIGGRMKPAHTLASELVRKVFHNDDFNGIDPRKVFLSIIENSKVWFNVPFI | 0.119 |

| Sequence | soluble fraction (log2) |
| --- | --- |
| HMNLYENLATHVKNAIRQGVYQPGDRLPSVRRLSEQHRVSQNTAVSAYRLLESHGWLEARPQSGFFARHP | -1.11 |
| HMNLYERFPIHELWKETFNETLDEEEHITFITSEFKPENIVLGQGFIAAPSKKDAVDWLKVIRTVLIFYDS | -0.941 |
| HMNMANFARIRLILELHDRGMSQDEISRSRHMSRSTITTVLRTARKKGITYAGIRKLDDAALQKLFFPDR | -3.88 |
| HMNMDLGHSISKLRTDANLTQEKFAQILNVSRQTVQKWEYGEALPDIHNIIKIAKFFNISLDALVLRS | -0.159 |
| HMNMIGDVIRNLRTVSSMTQTELGQRMGVIKQTISNWEKNISTPSIDAIVKLSSIFNVPTDYLL | -1.06 |
| HMNMMESNLFAVYDNDDIVKTLRQGAMEIDSLIRLMGKSSAEVLEKLTTMELQGIITRSGNIIALNN | -0.064 |
| HMNMNDIKFGKYLKRVRKKYNFSKEYVANILKVKESLVSDWESGRLTLNDEYMEKLSLFYGVNLYKK | -0.863 |
| HMNMPDVTVEWVKEQQAKFGLTDSDLAKSVNIDNANLARIFNQRGLTKIHKALFYYFFRAYGLQ | -2.4 |
| HMNMRVLSEQPNKKSYQDGNLRLKVFGASFKKSDILNEALNQARVEETGLQIPKLLEVKQIDGQWTIVTE | -0.0363 |
| HMNMVSGHLQVKKGYYYAVLSFYDSKNKRHVKYISTGLPEKGNKRKAEAELVKIRNAFEPPAE | -0.338 |
| HMNNESEGAIMLRQYSSLSAYLTKYNIDVNSKKAQQYASSLKLAQEKGSAEGQKYLSSISSELDD | -0.158 |
| HMNNIIEQIKADIKKLEEKLDKSSENALNKLEKDYSSLSTESKKKLDDAGYGARIKALRVKFAALSTQ | 0.0666 |
| HMNNISKKIKELREQNNITQNKLANDLFIKQQTVAQWENGSRALKADSIISLAKYFNVSTDYLLGLTEN | -0.339 |
| HMNNLKTKELSKIGYTNDKARSLVISIIPKHFKYHSKSEIIELLTNIKNKPEDYVSDEILGKIAETFMEKI | -0.215 |
| HMNNLSEELNVTFPRTRDQLLNILHYVQHKYGYISKVSMQEIGNHIKMPVSEIYGTVTSYSEFKI | -1.54 |
| HMNNLTEEAINHLVLEVKNVLLTDALFLGKATDSQLMLRIKETIDQRNGQYNIGMNDRERIARRVFARLR | -0.189 |
| HMNNLVGKTKVLKSNTNIYAYKTMSGKFYSYLPNTRVRVLQDLGYINYIEVIATKRRGYVYENVY | -0.0937 |
| HMNNNIFVYPNPSINYINIDSDEEIWKLEIIQMSGEKINILPFSKRIDISFLSKGLYILNFNNYYIKFIK | -0.187 |
| HMNNQIFGLKFRQLRKQQHITLAKAAAGITSRQSLGNWETGKGELAFEKVLLLLKKINVQPIDFLESSIS | -3.67 |
| HMNNQILYERLRDLRERNHFTQAFVSSKLNIGRATYSNYERGKRTPSLDVIMDLASFYKVPFTYF | -0.0166 |
| HMNNQMTFSKFLNEVDAGRVVEVEIQGNNIKGVLADGNRFNTFSPNYPNLVEKLSDKGVSITAAPK | 0.0484 |
| HMNPASVLDGLKITSFSPTRAIVAGPGGSRIVFDNEAVVLGGIEWDVHIQRNGIEFTSQGQTVLLLFDRS | -1.21 |
| HMNPDDEMLLTYLTKLLVDKQFIVNSNDIFEYILRRVDRTYDGIYDIVSKLDVLSLEKKRQLTIPLIKEI | 0.0226 |
| HMNPETIHNDYKAFIKFAFSGLSYYSKVWNQNREMITPGLLETLWQKYRHLSIGEIETILEKIIKEG | -1.88 |
| HMNPGNTESFPVYQKRLGEIIQTLAGKKGQDINSPEVKELVGEYDFLTKQMFQLPDATSMVMEIATAYRN | 0.0462 |

Source: the domain aggregation screens of Martell et al. (2025)
